Among the data in doi:10.1101/2024.10.29.620959v2 are Km values, retold here.

Substrate in data set [1]: CCCCCCCCCCCC(=O)O
Briefly: purified protein. As to conditions: pH 7.5.

Substrate in data set [2]: CCCCCCCCCCCCCCCC(=O)O
Briefly: purified protein. As to conditions: pH 7.5.

B1: FadD5 (Mycobacterium tuberculosis H37Rv) (protein)
chain: MTAQLASHLTRALTLAQQQPYLARRQNWVNQLERHAMMQPDAPALRFVGNTMTWADLRRRVAALAGALSGRGVGFGDRVMILMLNRTEFVESVLAANMIGAIAVPLNFRLTPTEIAVLVEDCVAHVMLTEAALAPVAIGVRNIQPLLSVIVVAGGSSQDSVFGYEDLLNEAGDVHEPVDIPNDSPALIMYTSGTTGRPKGAVLTHANLTGQAMTALYTSGANINSDVGFVGVPLFHIAGIGNMLTGLLLGLPTVIYPLGAFDPGQLLDVLEAEKVTGIFLVPAQWQAVCTEQQARPRDLRLRVLSWGAAPAPDALLRQMSATFPETQILAAFGQTEMSPVTCMLLGEDAIAKRGSVGRVIPTVAARVVDQNMNDVPVGEVGEIVYRAPTLMSCYWNNPEATAEAFAGGWFHSGDLVRMDSDGYVWVVDRKKDMIISGGENIYCAELENVLASHPDIAEVAVIGRADEKWGEVPIAVAAVTNDDLRIEDLGEFLTDRLARYKHPKALEIVDALPRNPAGKVLKTELRLRYGACVNVERRSASAGFTERRENRQKL
In the case of B1, the Michaelis constant (Km) was 102 ± 8.55 µM in data set [1] and 89.83 ± 9.71 µM in data set [2].

What is called Km is the substrate concentration at which the rate is half of its maximum.
